This is an account of results in paper PMC3942423 (Nature chemical biology, 2009).

Substrate in this data set: O=[N+]([O-])c1ccc(O[C@H]2O[C@H](CO)[C@@H](O)[C@H](O)[C@@H]2O)cc1
Description: 4NP-Man hydrolysis kinetics. The following applies: other: substrate 4NP-Man. Format: biochemical, Bacteroides thetaiotaomicron.

B1: Bt3130 (Bacteroides thetaiotaomicron VPI-5482) (protein)
chain: GEITKYVNPFIGTGAIDGGLSGNNYPGATSPFGMIQLSPDTSEAPNWGDASGYDYNRNTIFGFSHTRLSGTGASDLIDITLMPTSSGRTSSAFTHDEEKARPGYYQVMLKDENINAELTTTQRNGIHRYQYPAGKDAEIILDMDHSADKGSWGRRIINSQIRILNDHAVEGYRIITGWAKLRKIYFYMEFSSPILTSTLRDGGRVHENTAVINGTNLHGCFRFGQLNGKPLTCKVALSSVSMENARQNMEQEAPHWDFDRYVAAADADWEKQLGKIEVKGTEVQKEIFYTALYHTMIQPNTMSDVNGEYMAADYTTRKVANNETHYTTFSLWDTFRASHPLYTLLEPERVTDFVKSMIRQYEYYGYLPIWQLWGQDNYCMIGNHSIPVITDAILKGIPGIDMEKAYEAVYNSSVTSHPNSPFEVWEKYGFMPENIQTQSVSITLEQAFDDWCVAQLAAKLNKDADYQRFHKRSEYYRNLFHPKTKFFQSKNDKGEWIEPFDPYQYGGNGGHPFTEGNAWQYFWYVPHNIQALMELTGGTKAFEQKLDTFFTSTYKSEQMNHNASGFVGQYAHGNEPSHHVAYLYNFAGQPWKTQKYVSHILNTLYNNTSSGYAGNDDCGQMSAWYVFSAMGFYPVNPADGRYIIGSPLLDECTLKLAGNKEFRIRTIRKSPEDIYIQSVTLNGKKHKDFFITHQDIMNGGTMVFKMGKKPSGWGK
Regarding B1, where the note is “enzyme Bt3130, pH 7.0”, the Km – broadly, the concentration of substrate that gives half-maximal velocity – is 510 ± 97 µM; the kcat (as a rule, the number of substrate molecules converted per active site and unit of time at saturation) stood at 56.7 ± 3.17 s⁻¹; the kcat/Km (usually the turnover number divided by the Michaelis constant) worked out at 112000 M⁻¹ s⁻¹.

B2: Bt3991 (Bacteroides thetaiotaomicron VPI-5482) (protein)
chain: MKLKTLLIGCFGGFIMLNSCTESPSVKDYSAYVNPFIGTGGHGHTFPGAVVPHGMIQPSPDTRIDGWDACSGYYYDDNTINGFSHTHVSGTGCCDYGDVLLMPTVGKPQYLTTDPESQKLAYASAFSHENETAEPGYYSVFLDTYQVKAEITATKRGAIHRYTFPESTESGFIIDLDYSLQRQTNYEMEIEVISDTEICGHKKTTYWAFDQYINFYAKFSKPFAYTLITDSVTMDNGKRLPVCKAVLHFNTKKDEEVLVKVGVSAVDIAGARKNVESEIPEWDFDKVRKDARTAWNNYLSKIDITTSDKEDKTIFYTALYHTAISPNLFTDADGRYLGMDLEVHQGDTINPLYTVFSLWDTFRALHPLMTIIDPNLNNQFINSLIRKHQEGGIYPMWDLASNYTGTMIGYHAVPVIVDAYMKGYRNFDAHEAYKASLRAAEYDTTGIKCPDLVLPHLMPKAKYYKNAIGYIPCDRENESVAKALEYAYDDWCISIFAEAMNDFENKAKYERFAKAYEFYFDKSTRFMRGLDSNGEWRTPFNPRASTHRSDDYCEGTAWQWTWFVPHDVEGLVKLMGGEDAFVEKLDSLFTVDSSLDGETTSADISGLIGQYAHGNEPSHHVIHLYNYVNRPWRTQELVDSVYRSQYANNVDGLSGNEDCGQMSAWYILNSMGFYQVCPGKPVYSIGRPAFDKAVINLPGEKTFSIVAKNNSKSNKYIESVLLNGKPLDTPFFGHQDIVAGGVMEIRMTDHPTQWGVRQ
In the case of B2, where the note is “enzyme Bt3991, pH 7.0”, the kcat was 0.0025 ± 0.00035 s⁻¹ and the kcat/Km was determined as 0.917 M⁻¹ s⁻¹.

B3: Bt3963 (Bacteroides thetaiotaomicron VPI-5482) (protein)
chain: QQPVDYVNPIIGTNGMGHTFPGACTPFGWVQLSPDTDTIPHNVNGAYQKNAYEYCAGYQYRDKTIVGFSHTHLSGTGHSDLGDILLMPAVGDVKLNPGRADHPEEGYRSRFDHATEKATPGYYEVMLDDYGIKAQLTATQRTGVHKYTFPKGKDGHLILDLVHGIYNYDGKVLWANLRVENDTLLTGYRITNGWARTNYTYFAISLSQPIKDYGYKDKEKVLYNGFWRRFKLEKNFPEITGRKIVAYFNFETAKDPELVVKVALSAVSTEGAVKNLRAEASGKSFEQLAEAARTDWNNELDHFEIEGTPDQKAMFYTSLYHTMINPSVYMDVDGSYRGLDHNIHQAKGFTNYTIFSLWDTYRAEHPFLNLVKPERNADMVESMIKHEQQSVHGMLPIWSLMGNENWCMSGYHAVSVLADAITKGVFSNVDEALSAMVSTSTVPYYEGVADYMKLGYIPLDKSGTAASSTLEYAYDDWTIYQTALKAGNKEIADTYRKRALNYRNIYDTSIGFARPRYSDGTFKKEFDVLQTYGEGFIEGNSWNFSFHVPHDVFGMIDLMGGEKTFVQKLDELFSMHLPEKYYEHNEDITEECLVGGYVHGNEPSHHVPYLYAWTSQPWKTQYWLREILNKMYKNDINGLGGNDDCGQMSAWYLFSVMGFYPVCPGTDQYVLGAPYLPYLKLTLPNGKTLEIKAPGVSDKKRYVQSLKLNGESYDKMYITHEDILKGGVLEFKMSASPNKRRGVSVQDKPYSLTNGIN
On to B3, for which, where the note is “enzyme Bt3963, pH 7.0”, the Km was determined as 790 ± 80 µM, the turnover number (kcat) was 0.00045 ± 1.67e-05 s⁻¹ and the kcat/Km is 0.567 M⁻¹ s⁻¹.

B4: Bt1032 (Bacteroides thetaiotaomicron VPI-5482) (protein)
chain: GEGKAPPMDKEKSLLIDYVDPFIGTTNFGTTNPGAVCPNGMMSVVPFNVMGSADNTYDKDARWWSTPYEHTNCFFTGYSHVNLSGVGCPELGSLLLMPTTGELNVDYKEYGSKYKDEQASPGYYSNYLTKYNIKTEVSATPRTGIARFTFPKGESHILLNLGEGLTNESGAMLRRVSDSEIEGMKLLGTFCYNPQAVFPIYFVMRVNKVPATTGYWKKQRPMTGVEAEWDRDQGKYKLYTRYGKEIAGDDVGAYFTFETEEGEQVEVQMGVSFVSIENARLNLDKEQSGKNFEQVLSDARAQWNDDLSRITVEGGTDAQKTVFYTALYHLLIHPNVLQDVNGEYPAMESDQILTTKGTRYTVFSLWDTYRNVHQLLTLVYPERQMEMVRTMLDMYREHGWFPKWELYGRETLTMEGDPSIPVIVDTWMKGLRDFDVDLAYEAMYKSATLPGAENLMRPDNDDYMSKGYVPLREQYDNSVSHALEYYIADFALSRFADALGKKKDAEMFYKRSLGYKHYYSKEFGTFRPILPDGTFYSPFNPRQGENFEPNPGFHEGNSWNYTFYVPHDVYGLAKLMGGKKPFVNKLQMVFDEGLYDPANEPDIAYAHLFSYFKGEEWRTQKETQRLLDKYFTTKPDGIPGNDDTGTMSAWAIFNMIGFYPDCPGLPEYALTTPVFNKVTIRLDPKWYKENELVIESNRTGSETLYINKVLLDGKKFNKYRITHDELVHGKRLIFDLK
In the case of B4, where the note is “enzyme Bt1032, pH 7.0”, the Km amounted to 1700 ± 360 µM, the kcat came to 0.006 ± 0.000633 s⁻¹ and the kcat/Km came to 3.5 M⁻¹ s⁻¹.

B5: Bt3994 (Bacteroides thetaiotaomicron VPI-5482) (protein)
chain: EIDYTSYVNPFIGTDFTGNTYPGAQAPFGMVQLSPDNGLPGWDRISGYFYPDSTIAGFSHTHLSGTGAGDLYDISFMPVTLPYKEAEAPLGIYSKFSHDEESAYAGYYQVRLKDYHINVELTATERCGIQRYTFPKAEAAIFLNLKKAMNWDFTNDSHIEVVDSVTIQGYRYSDGWARDQRIYFRTRFSKPFDKVELDTTAIIKDKQHIGTAVIARFDFHTEEGEQILVNTAISGVSMEGAAKNLQAEVPENDFDKYLAETKANWNRQLGKIEVEGDNQDDKVNFYTALYHSMIAPTIYSDVDGAYYGPDKKVHQSDGWVNYSTFSLWDTYRAAHPLFTYTEPERVNDMVKSFIAFFEQNGRLPVWNFYGSETDMMIGYHAVPVIVDAYLKGIGNFDAEKALAACVATANLDNYRGIGLYKQLGYIPYNVTDHYNAENWSLSKTLEYAFDDYCIAEMANKMGKKEIADEFYKRSQNYKNVYNPATSFMQPRDDKGNFIKDFKADEYTPHICESNGWQYFWSVQHDIDGLIDLTGGKNRFAEKLDSMFTYHPAADEELPIFSTGMIGQYAHGNEPSHHVIYLFNAVGQQNLTQKYVAKVMNELYKNEPAGLCGNEDCGQMSAWYVFSAMGFYPVNPVSGKYEIGTPLFPEMKLHLANGKTFTVLAPKVSKENIYIQSIKVDGQPYNKTYLTHEQIMSGTTVEFEMGNTPLVEVEFEEQTQ
As for B5, for the setting “enzyme Bt3994, pH 7.0”, the Km was 3700 ± 430 µM, the kcat is 1.57 ± 0.0933 s⁻¹ and the kcat/Km was determined as 433 M⁻¹ s⁻¹.
